The target of the assay is T1, FLAG-tagged p61 BRAF(V600E/R509H) (Homo sapiens, UniProt P15056 1-168; P15056 381-766).
T1 construct: domain: exons 1-3;domain: exons 9-18; Expressed in 293H cells; also called dimerization-deficient mutant; not shown: FLAG tag
The assay can be described thus: co-immunoprecipitation of Flag- and V5-tagged forms from 293H cell lysate (FIG. 2C). The protocol:
FIG. 2C. To compare levels of dimerization, 293H cells co-expressing FLAG tagged and c-terminal V5-tagged p61BRAF(V600E), full length BRAF(V600E) and the corresponding dimerization-deficient mutants p61 BRAF(V600E/R509H) and BRAF(V600E/R509H) were lysed followed by immunoprecipitation with FLAG antibody. Western blots with V5 or FLAG antibodies were performed as indicated.
The inventors of the present invention then determined whether deletion of exons 4-8 promoted dimerization of p61 BRAF(V600E). To determine levels of dimerization, the inventors ectopically co-expressed two constructs encoding the same protein; either p61 BRAF(V600E) or full-length BRAF(V600E) with different tags (Flag or V5).

B1: V5-tagged p61 BRAF(V600E/R509H) (enzyme, Homo sapiens, UniProt P15056 1-168, looked up)
chain: MAALSGGGGGGAEPGQALFNGDMEPEAGAGAGAAASSAADPAIPEEVWNIKQMIKLTQEHIEALLDKFGGEHNPPSIYLEAYEEYTSKLDALQQREQQLLESLGNGTDFSVSSSASMDTVTSSSSSSLSVLPSSLSVFQNPTDVARSNPKSPQKPIVRVFLPNKQRTVDLIRDQGFRGDGGSTTGLSATPPASLPGSLTNVKALQKSPGPQRERKSSSSSEDRNRMKTLGRRDSSDDWEIPDGQITVGQRIGSGSFGTVYKGKWHGDVAVKMLNVTAPTPQQLQAFKNEVGVLRKTHHVNILLFMGYSTKPQLAIVTQWCEGSSLYHHLHIIETKFEMIKLIDIARQTAQGMDYLHAKSIIHRDLKSNNIFLHEDLTVKIGDFGLATEKSRWSGSHQFEQLSGSILWMAPEVIRMQDKNPYSFQSDVYAFGIVLYELMTGQLPYSNINNRDQIIFMVGRGYLSPDLSKVRSNCPKAMKRLMAECLKKKRDERPLFPQILASIELLARSLPKIHRSASEPSLNRAGFQTEDFSLYACASPKTPIQAGGYGAFPVH
notes: domain: exons 1-3;domain: exons 9-18; Expressed in 293H cells; also called dimerization-deficient mutant; not shown: V5 tag at the C-terminus
Consider B1, for which the binding result is on record as “no binding”.

The values above are taken from US20120301878A1 (Memorial Sloan Kettering, published 2012).
